# Measurements reported in patent US20220018842A1 (FUKUSHIMA MEDICAL UNIVERSITY, published 2022).
# B1: Rat αCLDN6 #C6C15-1 monoclonal antibody (antibody, V domains shown)
# VH: EVKLVETGGGLVKPGGSLRLSCATSGFNFNDYFMNWVRQAPGKGLEWVAQIRNKNYNYATYYAESLEGRVTISRDDSKSSVYLQVSSLRAEDTAIYYCTRGAYWGQGVMVTVSS
# VL: DIVMTQSPSFLSASVGERVTLSCRASQNINKYLDWYQQKLGEAPKLLIYDTNNLHAGIPSRFSGSGSGTDYTLTISSLQPEDVATYFCLQRNSWPYTFGAGTKLELK
# notes: Rat hybridoma monoclonal antibody (detected with anti-rat IgG), used as undiluted culture supernatant; constant regions and isotype are not; also called αCLDN6 #C6C15-1 antibody; ACLDN6 #C6C15-1 antibody
# Experiments:
# [1] = target: T1, claudin 6 (CLDN6) protein (human, UniProt P56747 1-220); experiment: Western blot of extract of HEK293T cells expressing CLDN6
# T1 construct: also called human CLDN6 protein
# T1 sequence: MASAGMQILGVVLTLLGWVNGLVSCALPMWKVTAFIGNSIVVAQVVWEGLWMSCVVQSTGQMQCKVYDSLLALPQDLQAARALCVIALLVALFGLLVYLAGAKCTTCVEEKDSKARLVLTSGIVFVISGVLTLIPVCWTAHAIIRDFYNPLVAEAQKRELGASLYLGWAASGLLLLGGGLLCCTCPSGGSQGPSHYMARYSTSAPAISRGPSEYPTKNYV
# [2] = target: T2, antigen peptide having the amino acid sequence from the 208th position to the 220th position of the human … (human); experiment: ELISA of hybridoma culture supernatant on coated antigen peptide
# T2 construct: Coupled to KLH for immunisation
# T2 peptide: SRGPSEYPTKNYV
# Experimental: After 4 days of culture, the medium was exchanged with 100 μL of hybridoma medium. Positive clones were screened by ELISA using 50 μL of the culture supernatant 2 days after the exchange. The screening was performed by the following procedure.
# First, the antigen peptide solution was diluted to 3 μg/mL, 100 μL was added to each well of a 96-well ELISA plate, and the mixture was allowed to stand overnight at 37° C. Then, the antigen peptide solution was removed from each well, the wells were washed with 200 μL of PBS, then a blocking solution (1% bovine serum albumin/PBS) was added, and the mixture was allowed to stand at 37° C. for 1 hour. Then, the blocking solution was removed from each well, the wells washed with 200 μL of PBS, 50 μL of culture supernatant was added, and the mixture was reacted at 37° C. for 1 hour. After removing the culture supernatant from each well, the wells were washed 3 times with 200 μL of PBS. […] After that, the secondary antibody solution was removed from each well, the wells were washed 3 times with PBS, and then the color was developed using TMB Substrate Set (BioLegend) with the method recommended by the manufacturer, and the absorbance was measured.
# CLDN9 = target: T3, CLDN9 (UniProt O95484 1-217, limits assumed); experiment: Western blot of extract of HEK293T cells expressing the claudin; undiluted culture supernatant
# T3 construct: whole, on cells; also called claudin 9
# T3 sequence (looked up): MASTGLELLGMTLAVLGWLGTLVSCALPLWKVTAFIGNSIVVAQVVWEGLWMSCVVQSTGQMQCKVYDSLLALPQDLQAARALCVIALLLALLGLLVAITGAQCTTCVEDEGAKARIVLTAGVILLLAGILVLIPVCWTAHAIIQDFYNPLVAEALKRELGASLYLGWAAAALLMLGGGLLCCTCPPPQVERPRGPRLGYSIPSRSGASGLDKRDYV
# Experimental: (§1) 48 hours after the introduction of each gene, protein was extracted using a lysate in which the proteolytic enzyme inhibitor, Complete mini EDTA-free (Roche Diagnostics) was added to CelLytic™ MT Cell Lysis Reagent (Sigma-Aldrich) at a concentration of […]. SDS-PAGE, […], and antibody reaction were sequentially performed according to a standard protocol, chemiluminescence was performed by ECL™ Prime Western Blotting Detection reagent (GE Healthcare), and images were taken using CCD imager Image Quant LAS4000 (GE Healthcare). The primary antibody was reacted overnight at 4° C. using a culture supernatant stock solution of αCLDN6 #C6C15-1, and the secondary antibodies were reacted for 30 minutes using ECL™ Rat IgG, HRP-linked whole antibody (Sigma-Aldrich) diluted 2,000-fold with PBS, and ECL™ Rabbit IgG and HRP-linked whole antibody (Sigma-Aldrich) described in Table 1 diluted 5,000-fold with PBS, respectively.
# (§2) In order to confirm the antigen specificity and cross-reactivity of the anti-CLDN6 monoclonal antibody (αCLDN6 #C6C15-1) produced in the Examples, Western blotting was performed for CLDN1, CLDN4, CLDN5, CLDN6, and CLDN9 for verification.
# CLDN5 = target: T4, CLDN5 (UniProt O00501 1-218, limits assumed); experiment: as above
# T4 construct: whole, on cells; also called claudin 5
# T4 sequence (looked up): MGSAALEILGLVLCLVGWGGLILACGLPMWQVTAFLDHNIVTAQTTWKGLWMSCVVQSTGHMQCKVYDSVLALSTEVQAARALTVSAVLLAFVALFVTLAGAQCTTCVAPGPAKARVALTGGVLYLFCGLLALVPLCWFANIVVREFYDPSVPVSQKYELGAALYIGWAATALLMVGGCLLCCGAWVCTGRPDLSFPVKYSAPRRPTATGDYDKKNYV
# Experimental: as §1, §2
# CLDN1 = target: T5, CLDN1 (UniProt O95832 1-211, limits assumed); experiment: as above
# T5 construct: whole, on cells; also called claudin 1
# T5 sequence (looked up): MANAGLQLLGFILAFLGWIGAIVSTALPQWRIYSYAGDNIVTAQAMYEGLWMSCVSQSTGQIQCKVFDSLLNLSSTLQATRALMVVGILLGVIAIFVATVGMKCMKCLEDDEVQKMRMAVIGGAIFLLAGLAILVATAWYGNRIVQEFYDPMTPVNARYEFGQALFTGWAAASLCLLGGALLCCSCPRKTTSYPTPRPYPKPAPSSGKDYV
# Experimental: as §1, §2
# CLDN4 = target: T6, CLDN4 (UniProt O14493 1-209, limits assumed); experiment: as above
# T6 construct: whole, on cells; also called claudin 4
# T6 sequence (looked up): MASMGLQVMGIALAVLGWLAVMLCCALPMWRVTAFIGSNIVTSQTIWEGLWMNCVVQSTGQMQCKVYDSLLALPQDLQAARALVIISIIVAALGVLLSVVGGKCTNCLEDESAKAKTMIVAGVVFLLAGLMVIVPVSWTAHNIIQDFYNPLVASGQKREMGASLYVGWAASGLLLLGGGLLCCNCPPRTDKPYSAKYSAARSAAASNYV
# Experimental: as §1, §2
binder,measurement,setting,value
B1,binding result,[1],binds
same,binding result,[2],binds
same,binding result,CLDN9,no binding
same,binding result,CLDN5,no binding
same,binding result,CLDN1,no binding
same,binding result,CLDN4,no binding
